From publication PMC6286341, “The reduced activity of PP-1α under redox stress condition is a consequence of GSH-mediated transient disulfide formation” (Scientific Reports, 2018) come the findings set out here.

The data set concerns the molecule itself. The experiment in a line: disulfide-linked peptides by LC-MS/MS (cross-over-read search); non-treated bovine SOD1, filter-aided sample preparation, trypsin/chymotrypsin digest.

B1: bovine superoxide dismutase 1 (SOD1) (enzyme)
chain: not shown
modifications: N-terminal acetylation (N-terminally acetylated Cys7 peptides)
notes: superoxide dismutase 1, bovine; 3 Cys residues Cys7, Cys56 and Cys145; also called bovine SOD1; source: bought: Sigma Aldrich S7571
With B1, the binding result is given as “binds”.
